According to US20150037343A1:

Target: FLAG-tagged Ang2 mutant A449 (alanine) (human) (UniProt O15123)
Test: ELISA, scFv coated, FLAG-tagged mutant Ang2, anti-FLAG-HRP

Sequence of UniProt O15123 (O15123 other isoform, or with tags, fused parts or gaps mutant): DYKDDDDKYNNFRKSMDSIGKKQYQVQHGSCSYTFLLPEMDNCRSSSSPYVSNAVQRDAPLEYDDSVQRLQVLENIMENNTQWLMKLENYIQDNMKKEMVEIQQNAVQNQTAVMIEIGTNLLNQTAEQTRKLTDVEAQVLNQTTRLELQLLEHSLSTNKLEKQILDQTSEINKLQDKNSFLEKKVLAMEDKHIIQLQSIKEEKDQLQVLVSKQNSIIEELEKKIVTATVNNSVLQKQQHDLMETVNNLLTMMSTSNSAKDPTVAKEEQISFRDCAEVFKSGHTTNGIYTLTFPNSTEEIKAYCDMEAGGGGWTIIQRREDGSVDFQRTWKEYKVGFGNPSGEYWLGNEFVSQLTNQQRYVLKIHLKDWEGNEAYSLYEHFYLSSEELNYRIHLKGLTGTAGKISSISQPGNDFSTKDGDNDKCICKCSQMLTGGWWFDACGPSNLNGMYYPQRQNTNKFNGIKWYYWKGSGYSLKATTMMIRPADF

Binder | Relative binding (%) with Mutant Ang2 compared to the binding with native Ang2
SAIT-ANG2-AB-2-E6 (scFv form) (scFv, V domains shown) VH: EVQLLESGGGLVQTGGSLRLSCAASGFTFSDYAMSWVRQAPGKGLEWVSAIYPDSGNKYYADSVKGRFTISRDNSKNTLYLQMNSLRAEDTAVYYCARHSSDPKVKSGYYDDGMDVWGQGTLVAVSS VL: QSVLTQPPSASGTPGQRVTISCSGSSSNIGNNAVNWYQQLPGTAPKLLIYADSNRPSGVPDRFSGSKSGTSASLAISGLRSEDEADYYCGSWDYSLSGYVFGGGTKLTVLG | 3.3%
SAIT-ANG2-AB-3-D3 (scFv form) (scFv, V domains shown) VH: EVQLLESGGGLVQPGGSLRLSCAASGFTFSDYDMSWVRQAPGKGLEWVSGISSDDGNTYYADSVKGRFTISRDNSKNTLYLQMNSLRAEDTAVYYCARPTIDKYTLRGYYSYGMDVWGQGTLVTVSS VL: QSVLTQPPSASGTPGQRVTISCTGSSSNIGSNYVSWYQQLPGTAPKLLIYSDNKRPSGVPDRFSGSKSGTSASLAISGLRSEDEADYYCGTWDDSLNGYVFGGGTKLTVLG | 101%
SAIT-ANG2-AB-4-C11 (scFv form) (scFv, V domains shown) VH: EVQLLESGGGLVQPGGSLRLSCAASGFTFSDYAMSWVRQAPGKGLEWVSSIYPDDGNTYYADSVKGRFTISRDNSKNTLYLQMNSLRAEDTAVYYCARHTSHHTSIDGYYYYGMDGWGQGTLVTVSS VL: QSVLTQPPSASGTPGQRVTISCTGSSSNIGNNDVSWYQQLPGTAPKLLIYSDSKRPSGVPDRFSGSKSGTSASLAISGLRSEDEADYYCGSWDYSLSGYVFGGGTKLTVLG | 4.8%
SAIT-ANG2-AB-7-C9 (scFv form) (scFv, V domains shown) VH: EVQLLESGGGLVQPGGSLRLSCAASGFTFSNYAMSWVRQAPGKGLEWVSAISSGGGNIYYADSVKGRFTISRDNSKNTLYLQMNSLRAEDTAVYYCAKSGIQPSPPSMSSAYAMDVWGQGTLVTVSS VL: QSVLTQPPSASGTPGQRVTISCSGSSSNIGNNDVYWYQQLPGTAPKLLIYANSHRPSGVPDRFSGSKSGTSASLAISGLRSEDEADYYCGTWDYSLSGYVFGGGTKLTVLG | 14.5%
SAIT-ANG2-AB-4-F5 (scFv form) (scFv, V domains shown) VH: EVQLLESGGGLVQPGGSLRLSCAASGFTFSDYDMSWVRQAPGKGLEWVSSISHGDSNKYYADSVKGRFTISRDNSKNTLYLQMNSLRAEDTAVYYCAKSSGIQESPPTYYYYGMDVWGQGTLVTVSS VL: QSVLTQPPSASGTPGQRVTISCSGSSSNIGSNAVNWYQQLPGTAPKLLIYADSNRPSGVPDRFSGSKSGTSASLAISGLRSEDEADYYCGSWDYSLSGYVFGGGTKLTVLG | 14%
SAIT-ANG2-AB-4-F11 (scFv form) (scFv, V domains shown) VH: EVQLLESGGGLVQTGGSLRLSCAASGFTFSDYAMSWVRQAPGKGLEWVSSIYPDDGNTYYADSVKGRFTISRDNSKNTLYLQMNSLRAEDTAVYYCAKHPVRLNLHPMYYYYGMDVWGQGTLVTVSS VL: QSVLTQPPSASGTPGQRVTISCTGSSSNIGNNAVSWYQQLPGTAPKLLIYSDSQRPSGVPDRFSGSKSGTSASLAISGLRSEDEADYYCATWDYSLSAYVFGGGTKLTVLG | 16.7%
